Test results: patent US20030104532A1 (CHILDREN S MEDICAL CENTER, published 2003)
Values belong to the binder of their own block, whether it stands above or below them.

What was measured:
[1] = molecular target: T1, Human VEGF165R/NP-1 (neuropilin-1) (human, UniProt O14786 22-923); assay: ^125I-VEGF121 binding and chemical cross-linking to PAE/NP-1 cells, SDS-PAGE, autoradiography
T1 construct: Expressed from the cDNA in PAE cells (PAE/NP-1, PAE/KDR/NP-1) and COS-7 cells; also called VEGF165 receptor; clone A2
Experimental: FIG. 8. […] The binding was carried out in the presence of 1 μg/ml heparin. […] The cells were lysed and proteins were resolved by 6% SDS-PAGE. The polyacrylamide gel was dried and exposed to X-ray film.

[2] = molecular target: T2, Neuropilin-1 on Dunning rat prostate carcinoma AT3.1 cells (rat, UniProt Q9QWJ9 22-922); assay: ^125I-VEGF165 cross-linking to Dunning rat prostate carcinoma cells
T2 construct: whole, on cells; also called VEGF165R/NP-1 (AT3.1 cells)

[3] = molecular target: T3, Human neuropilin-2 (NP-2) (human, UniProt O60462 21-931); assay: expression cloning: one of the seven single clones positive for ^125I-VEGF165 binding to transfected COS-7 cells
T3 sequence: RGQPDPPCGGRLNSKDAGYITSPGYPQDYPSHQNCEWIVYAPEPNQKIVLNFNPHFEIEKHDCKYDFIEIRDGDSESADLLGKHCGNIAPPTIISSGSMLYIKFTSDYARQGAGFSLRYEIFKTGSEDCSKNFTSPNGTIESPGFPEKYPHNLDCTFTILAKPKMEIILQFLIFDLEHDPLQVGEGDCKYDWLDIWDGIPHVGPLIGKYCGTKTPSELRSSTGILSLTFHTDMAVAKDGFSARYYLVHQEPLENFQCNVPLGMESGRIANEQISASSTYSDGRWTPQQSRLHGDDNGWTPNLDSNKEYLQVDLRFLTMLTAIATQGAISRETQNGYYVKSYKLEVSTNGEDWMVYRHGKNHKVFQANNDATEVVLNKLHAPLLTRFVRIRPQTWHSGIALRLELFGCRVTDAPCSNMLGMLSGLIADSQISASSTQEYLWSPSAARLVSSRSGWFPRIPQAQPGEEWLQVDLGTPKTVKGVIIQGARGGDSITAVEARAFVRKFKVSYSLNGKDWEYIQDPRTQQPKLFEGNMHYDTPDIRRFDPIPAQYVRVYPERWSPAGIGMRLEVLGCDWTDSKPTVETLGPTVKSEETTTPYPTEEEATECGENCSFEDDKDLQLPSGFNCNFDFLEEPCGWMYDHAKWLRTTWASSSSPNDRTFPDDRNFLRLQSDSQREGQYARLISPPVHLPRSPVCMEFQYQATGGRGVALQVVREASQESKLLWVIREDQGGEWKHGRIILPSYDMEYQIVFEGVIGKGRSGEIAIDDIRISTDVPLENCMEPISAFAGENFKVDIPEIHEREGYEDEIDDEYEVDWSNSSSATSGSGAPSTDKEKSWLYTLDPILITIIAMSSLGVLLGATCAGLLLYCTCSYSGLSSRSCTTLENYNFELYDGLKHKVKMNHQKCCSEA
Experimental: The E. coli were sub-divided into 50 separate pools and plated onto 50 LB ampicillin dishes, with each pool representing approximately 100 clones. DNA made from these pools was transfected into COS-7 cells which were screened for ¹²⁵I-VEGF₁₆₅ binding as described above. […] Each pool was plated onto separate LB ampicillin dishes and DNA was prepared from 96 individual colonies and screened in a 96-well two dimensional grid for ¹²⁵I-VEGF₁₆₅ binding to tranfected COS-7 cells as described above. […] The seven positive plasmid clones were amplified and their DNA was analyzed by restriction enzyme digestion. […] One clone from each group was submitted for automated DNA sequencing.
E. coli transformed with the plasmid library were divided into pools.

[4] = molecular target: T1, Human VEGF165R/NP-1 (neuropilin-1); assay: Scatchard analysis (LIGAND program) of ^125I-VEGF165 binding to PAE/NP-1 cells
Experimental: Scatchard Analysis of VEGF₁₆₅ Binding to VEGF₁₆₅R/NP-1.7A. Increasing amounts of ¹²⁵I-VEGF₁₆₅ (0.1-50 ng/ml) were added to subconfluent cultures of PAE cells transfected with human VEGF₁₆₅R/NP-1 cDNA (PAE/NP-1 cells) in 48 well dishes. Non-specific binding was determined by competition with a 200-fold excess of unlabeled VEGF₁₆₅. After binding, the cells were washed, lysed and the cell-associated radioactivity was determined using a y counter.
The specific activity ranged from 40,000-100,000 cpm/ng protein. […] VEGF binding was quantitated by measuring the cell-associated radioactivity in a y-counter (Beckman, Gamma 5500). The counts represent the average of three wells. All experiments were repeated at least three times and similar results were obtained.

[5] = molecular target: T1, Human VEGF165R/NP-1 (neuropilin-1); assay: cell-based or functional assay

- binding result [1]: no binding (tested: 10 ng/ml)
B1: Human recombinant VEGF121 (ligand, UniProt P15692-9 27-147, looked up)
chain: APMAEGGGQNHHEVVKFMDVYQRSYCHPIETLVDIFQEYPDEIEYIFKPSCVPLMRCGGCCNDEGLECVPTEESNITMQIMRIKPHQGQHIGEMSFLQHNKCECRPKKDRARQEKCDKPRR
modifications: radio-iodinated (^125I, IODO-BEADS) in the cross-linking experiments
notes: mature

- binding result [2]: binds
- binding result [3]: binds
- Kd [4]: ~320 pM
- 231 breast carcinoma cell motility (Boyden chamber motility assay) [5]: 2 fold
B2: Human recombinant VEGF165 (ligand, UniProt P15692-4 27-191, looked up)
chain: APMAEGGGQNHHEVVKFMDVYQRSYCHPIETLVDIFQEYPDEIEYIFKPSCVPLMRCGGCCNDEGLECVPTEESNITMQIMRIKPHQGQHIGEMSFLQHNKCECRPKKDRARQENPCGPCSERRKHLFVQDPQTCKCSCKNTDSRCKARQLELNERTCRCDKPRR
modifications: radio-iodinated (^125I, IODO-BEADS) in the binding and cross-linking experiments; coupled to Sepharose beads in the affinity purification
notes: mature
